Test: label from the status in PepcDB records

Sequence | protein production
MATKNSAPLASFIDLLLDAVCAVDVEGRFVFVSAACERVFGYTADELIGRPMIELVHPADRERTLQAAREIMGGVPKPNFENRYVRKDGRVAHILWSARWSEVDQLRIAVARDITERKQAESRQAALYAISEAAHATEDLLVLFRHVHRIIGEWLPALNCSLALYDERSASLSFPYHVDDCEGSPELPGTLIERFCVEVLQCGQPLLLAPECPVNRVLWSEFAAIQGSRCWLGVPLNSQKGTIGVLMVKSAPGTESYSEQDQELLQYVSAQLAAAIERKQLHARLHYMAEYDQLTHLPNRELLRERLRSALARARRESGRMALLYVDLDKFKEVNDTCGHAVGDMLLQAVANRLKGCVRETDTVARIGGDEFVILLESVQHSEDAQRVAEKIRRTLGEPLRLDGHSLNILPSIGIGLYPEHGLEEKQLFKHADEAMYAVKRAQKSRSNA | failed
MATKRANGEGSIGKYKDGWRSRIMIGYNEDGKPLRKEFYGKTQKEVKDKLDAYKKQYYLSSDISDDKITLEHWFYNWLFEYRIKDLKPKSFERYESIYRNYIKDTDLGNVKLKYLRVSHIQKYYNRLLDSNKSIPTIRQINTKLKTCLSEAEKQGLIQRNYCTMVNIPVEKKENKLEILTLEQQKSFIKAIDGHKLEVLFLLALGTGLRLGELLGLKWFDIDFKKSNLTVKRTLQRTYFIDKTGNRELKVLEQGPKTSNSYRTVPIPKDVLNKLKEHKVNQNTDILKAGELYINNNYVFCNELGIPIDDKRPLRNLKSILNSLNIEPIKFHGLRKTYATRLFENDVPPKTVQVLMGHYDISITLNIYTQVMEDKKVEAVEKLDKIFSL | failed
MATPKLEAYRKKRDFSKTPEPVGNLTAGGNRFVVHKHHATADHYDLRLEVDGVLKSWAVPKGPSLNPADKRLAVETEDHPLDYIDFEGVIPEGEYGGGPMIVWDKGVWAPMGDVDDDLRKGAFKFRLAGEKLNGGWMLARLKRRPGEEDQRNWLLFKERDPAADTSIDILAARPESVKSGRRIEELVEKPKAPPKPVKLNPGALAGAVKAAQPERIEPQLATQTILPPEAEKDSKKPERWLHEIKFDGYRTMAHVADGKVRLVTRGGLDWTKRYGDLPEVFRRLPCRDVIIDGEIVVLDETGVSRFALLQDALSTGAGNSLVFYAFDLLHLNGWNLFDVPLEKRKALLKQLLAGQVSSRSAIQFSDHVLGEGRALYDRASEMGLEGIVSKRISAPYRSGRSKTWTKTKALKAEDFVIVGYTVSEAAEGIASLALGEWADGELEYRGKVGTGFDAQMLKELLARLEPLRAGAAKLEGAPREIIWVRPLLRAHIHYGNRTTDNVLRHAVFKGLRDVELSTPVSMSRKRLISDADLAGISITNPTRRLFGKSGPTKLDLAVYYAMIGDFMLPHILGRPVSLVRCPTGRTQDCFFQRHPFTGMPPSVATFQATNSEGEAKTYLSVEDARGYLALAQFGVVEFHNWGTTRKLLGKPDRVVFDLDPGEGIAWREVVEAAIHIKAELEALALVPFVKTSGGRGVHVVVPVVPKLDWKKFHQATSALATRLAATAPATFTTTMGKDNRIRRIFIDFHRNARSHTWAAPYSLRARTNLPASTPLSWADLETIDAPADLNYSSLPGLLATSGDPWADIDDFARDLPIL | failed
MATQAAGIFSPAITTTTSAVKKLHLFSSSHRPKSLSFTKTAIRAEKTESSSAAPAVKEAPVGFTPPQLDPNTPSPIFAGSTGGLLRKAQVEEFYVITWNSPKEQIFEMPTGGAAIMREGPNLLKLARKEQCLALGTRLRSKYKITYQFYRVFPNGEVQYLHPKDGVYPEKANPGREGVGLNMRSIGKNVSPIEVKFTGKQSYDL | failed
MATQARLPLPVGSTTSVSVVIPAKNVAAYVGETLASALAQGEVTEVIVVDDGSTDNTIAIVRAIRDPRLRLMTNDSAGVSAARNLGARHASGEWLLFLDADDRLRPGAVAALLAAARGAPRAVLVYGDYNTIDSEGRQVGRRDLLKGRRKPSGDVLTRLAASNFIVNGGIALARAEAFRAIGGFDTSLRYCEDWHCWCRLAAIGEFEFAPKLLLDYRLHTANTMNAAVRTPQDFFPAIARVFDDGLILARLPEGTAARLRQAAEIHLVTYSAMQAVRFGRYRQAFTYLGMVGRRSLKSLPRSALRVALACFGILEHHHHHH | failed
MATRQPLDATACSLMVGLCAIWGLQQVALKATASDIAPVLQIALRSGGAALLVGLLMCWRGERLGLGDGHWRPGLLVGGLFALEFLLVGEGLRYTTASHMAIFLYTAPIFAALGLHWLMPAERLKPAQWLGIGVAFGGIVVAFSGPAAAGHGGGSHVLLGDFLGVLGGVAWGATTVVVRCSRLASSPTTRTLQYQLLGAFVWLGLAALLTDQTSIHFTPLVVASLGFQVLVVSFASFLIWFTLLRRYPASRLGVLSFMTPLFGIGFGVWLLHEPLEPNFIFGALLVLAGIVMVSGYEWLRQRFKRNRESPVAPRSS | failed

Reference: a protein production outcome set (Wang et al. 2014)
